Reference: the DeepSol protein solubility set

Assay: soluble on expression in E. coli; label from the status in PepcDB or PDB records

Soluble on expression in E. coli, soluble:
MLRISELKLPLDHTQEELADAVAGFLKAPADEVRGFTVFKRSYDARKGVMSLVYIIDVDVANEDKLFARFKGDRRVMPTPDTHYYYVAQAPESLKSRPVVVGFGPCGIFAALILAQMGFKPIVLERGKEVRQRTKDTWGLWRKSELNTESNVQYGEGGAGTFSDGKLYSQIKDPRHLGRKVLTEFVKAGAPEEILYLARPHIGTFRLVSMVENMRAEIIALGGEIRFEQRVDDLILDGDRVRGVKLADGGEVLSDHVVLALGHSARDTFQMLEKRGVYMEAKPFSVGVRIEHPQSLIDAARWGKYAGHPILGAADYKLVHHAGNGRAVYSFCMCPGGTVVAATSEEKRVVTNGMSQYSRNERNANSGFVVSISPEVDYPGGPLAGLDFQRELESKAYELGGGDYFAPAQLLGDFMAGKASTQLGSVEPSYKPGVTMTDLARILPDFCVEAMREAIPHFARQIRGYDLHDAVLTGLETRTSSPLRITRGEDFQSLNIKGLFPAGEGAGYAGGILSAGVDGIKVAEAVAKAMLGQLEHHHHHH
MTLMVPFKQVDVFTEKPFMGNPVAVINFLEIDENEVSQEELQAIANWTNLSETTFLFKPSDKKYDYKLRIFTPRSELPFAGHPTIGSCKAFLEFTKNTTATSLVQECKIGAVPITINEGLISFKAPMADYESISSEMIADYEKAIGLKFIKPPALLHTGPEWIVALVEDAETCFNANPNFAMLAHQTKQNDHVGIILAGPKKEAAIKNSYEMRAFAPVINVYEDPVCGSGSVALARYLQEVYKFEKTTDITISEGGRLKRNGLMLASIKKEADNSTSYYIAGHATTVIDGKIKVHHHHHH
MHHHHHHSSGVDLGTENLYFQSMEESGATFHTYLNHLIQGLQKEAKEKFKGWVTCSSTDNTDLAFKKVGDGNPLKLWKASVEVEAPPSVVLNRVLRERHLWDEDFVQWKVVETLDRQTEIYQYVLNSMAPHPSRDFVVLRTWKTDLPKGMCTLVSLSVEHEEAQLLGGVRAVVMDSQYLIEPCGSGKSRLTHICRIDLKGHSPEWYSKGFGHLCAAEVARIRNSFQPLIAEGPETKI
GPGSMTANSKPARFLALAAAKQGTTANVAFNALSVYAKMELSKQTNKMLKVHAATTPLVALIQKRTGIKAAAEAVRQTQTAAKATATVSSYDNSEINPQYIGADIAAKMEQMRKHESYGKIKKDGHTLSAPSTAKFPTAEDSTLRKITISVAVQVLCTGSSNSKWQISGKLEG
MSLTNQVTYLFFHGMKQISEHLFTTEEQAIIARSKAEGSYMKAPNGQATNLNKKQWAQVRTRAFREWFGDWENNPDEASKVRDANGEPLVVYHGTPISRDQAADRSKFRIADDWEIQTINAPFHTFRGGAYNGLIFTSLTEEKARSIGETRSMSIPDSEDGREQWTTDSYVYDLFVNARQPFDVKNPNAVKDILDALEGQLTAYDFYLGMEVPVSRKEAEKILEGGNSWRVVETPSMQEIIRSRGYDAIHALDEGVQYMAVFAPNQLKASGKYLYSERNTGVFSPGNNDIRFREVHHGVPASFTGYRSMKTETVRNDNIPAVLAALREKLEDTEQEWQDRILDYIAENYPTQTTVSAQTRSPEGLKEREAMKEGHHHHHH
MSEKMVAIMKTKPGYGAELVEVDVPKPGPGEVLIKVLATSICGTDLHIYEWNEWAQSRIKPPQIMGHEVAGEVVEIGPGVEGIEVGDYVSVETHIVCGKCYACRRGQYHVCQNTKIFGVDTDGVFAEYAVVPAQNIWKNPKSIPPEYATLQEPLGNAVDTVLAGPISGKSVLITGAGPLGLLGIAVAKASGAYPVIVSEPSDFRRELAKKVGADYVINPFEEDVVKEVMDITDGNGVDVFLEFSGAPKALEQGLQAVTPAGRVSLLGLYPGKVTIDFNNLIIFKALTIYGITGRHLWETWYTVSRLLQSGKLNLDPIITHKYKGFDKYEEAFELMRAGKTGKVVFMLK
MSKNIKTPTNQKVLTNVAVVRMKKTGKRFEIACYKNKVVNWRNKSEKDIDEVLQTHTVFSNVSKGQLSKKEELIAAFGIEDQLEICKIILDKGDLQVSEKERQAASDQSLKEVSQLIASMVVNPETKRPVPPSVIDKALQEMHFSLKPNRSSKQQALDAIPKLRETLKIERAKMKIRVAIPTKEAKSVHTKLKTLFSDVEVDDWQDGSLEMVGLIEPGSFRALDDLVRNETKGHGRLEILSLKDVVEGELQIS
LTTRDFDRTGRPLRFTELGFGSSPLGNLYRAISEEEAQALLERAWAGGIRYFDTAPLYGYGLAEERLGRFLAGHPRSDYVLSTKVGRLLRPVEPGEARDGLGKFFEVPERKERFDYGYDGVMRSLEASLDRLGLDRVDVLYAHDLDLFTHGSQEALEARLAEFMAGGYRALVELRDQGVISAFGAGVNEWQPCQWLAERGEFDLFLLAGRYTLLEQEALESFLPLAEERGIGIVIGGPYNSGVLATGPKPGSFYDYRLAPQAVLDRVAQIHTICERWGVRMFEAAFQFPLRHPAVLSVIPGPQSVGEVMENRIAADAELPPGLWEDLKVAGLLRPD
SKLTRKMVLTRAKASELHSVRKLNCWGSRLTDISICQEMPSLEVITLSVNSISTLEPVSRCQRLSELYLRRNRIPSLAELFYLKGLPRLRVLWLAENPCCGTSPHRYRMTVLRTLPRLQKLDNQAVTEEELSRALSEGEEITAAPEREGTGHGGPKLCCTLSSLSSAAETGRDPLDSEEEATSGAQDERGLKPPSRGQFPSLSARDASSSHRGRNVLTAILLLLRELDAEGLEAVQQTVGSRLQALRGEEVQEHAE
MTAATATANGNHSIEDPVVMKVQAASPIQETDFFENLYQMECFRTGEFYLKSGQMTPIYIDLRRIMSSPRVLRMAAQAMCEKIVASNLKFDYVVGVPYAALPLATLVSDILNVPMLMKRKEAKAYGTKQLIEGVYQPGGTVLLVEDVVTSGESIRETAEAIRNENLLVTDAIAVLDRQQGATANLAEDNLNFLSFLTMEKILDGLITKNEMTEERKHEIIAHLAKPF

Soluble on expression in E. coli, not soluble:
MKSTDQFQTHEVPWEEFIEALREEMKKQVGADIIDTVVCNLEDGFEVYTYVQGDLDFEYKEALERKYGSDAKTPNVLTIMLLASIYNTSEENIRLHADHKENPIVEVYVKQGNTL
SLVAVIGCCHGELNRLYMEVEKYENEKNEKVDLILCCGDMQTIRDENDLQDMAVKSHRSKKGDFWEYYEGLKKAPKLTIFIGGNHETPNVLIPLYYGGWVAPNIFYLGSSGVIRVGDVRVAGISGIYKNYDHFRGYYESKPFTEESKRSWYHIRWLEIQKLLLIENIKSNFLGSTESRKVDVMISHDWPNGIERFGNLNYLIRRKPYLKEDIELGRLGIPGCIELIEHLRPTFWFSGHHHCFFDASIEFENQLYSSEFRAIDKFKNSNSPVRYFDINSNKNDVRIYLDFEWLTILRSVKANIPKGNFTIDKNSIPKLSGPTKSDIDAIYKNLKEVIGDFDENHYEWPLWGQANGNFKNLQDQYNFINRIIEEG
MGSDKIHHHHHHMSDCQAKPETNYLSTSSGKYLTAFQRKLLLQNLQKSLVESYRQRIEIMLLADEGKTQRSICQTLGCCAATARHWTHIARSGMAHQWQDCPIGRPKAVNDQYLERLKELVNSSPRAHGYAFRRWTANWLGKHLAKEFGIEVSDRHIKRLLKQMGLSTLPKPSNVEQNSTEQVQGSKILICDLQSAGIPDDSEFLPINFAKLGKHLDIHGAKYICSVAYSATVQQYSGSFSFYRGISTLSSTS
MQKEPRKVREFRRREQEILDTALKLFLEQGEDSVTVEMIADAVGIGKGTIYKHFKSKAEIYLRLMLDYERDLNELLHSADVDKDKEALSRAYFEFRMRDPQRYRLFDRLEEKVVKGNQVPELVEELHKIRASNFEHLTLLIKGRITEGKLEDVPPYYHYCAAWALVHGAVALYHSPFWSNVLEDQEGFFNFLMDIGVRMGNKRKRDTDVPAEPKPDPDV
MSTKLTGYVWDGCAASGMKLSSVAIMARLADFSNDEGVCWPSIETIARQIGAGMSTVRTAIARLEAEGWLTRKARRQGNRNASNVYQLNVAKLQAAAFSQLSDSDPSKSDASKSDPSKFDASKSGKKAGFHPSESGGDPSVKSKHDPSDKKPSRPDSSQPDTQTAEQDFLTRHPDAVVFSPKKRQWGTQDDLTCAQWLWKKIIALYEQAAECDGEVVRPKEPNWTAWANEIRLMCVQDGRTHKQICEMYSRVSRDPFWCRNVLSPSKLREKWDELSLRLSPSVSTYTEKREDPYFKASYDNVDYSQIPAGFRG
MLKLYVLVYKGEPLDYHEYRHTALYLKLPDNQSFIMHILGTQGMFEYAQIKNKDPSVVGSLAKVVPVADISEVIGSGPIQSTVAKTLVQNGPLDLDWNCQHWVGDALSKLAERKYITVAERAEAIDRMMDACLEAMDD
MNNKLTPVSPGEMLAEEFLIPLGMSNYRLAKEIGVSAQRIGEIVTGKRAITVDTDLRLCRFFGLSDGWWLRLQVDYDIEMARGALEETLAKIRPWANTQEHGTPA
MGSDKIHHHHHHMSVLCLDLGGTKLMLAQVEGKTLLDTWRYPVPADGNFEQLFDFLVTCIHSHLTPETYGISIGIPGMVDMQSGTLLEVLNIPALTATQLAQQLKNTFEMDVVVNNDANLFALGEAVLNSNQDMLGITLGTGVGAGVIFNGQLYSGKHCAAGEIGSLSYRDGIIEHYCSGQYFTTHHHMSGEHLYQKACEGDSQALQAFAHFGEHLAHMIAQTLLVYDPKDIVLGGSVSQSFPFFIEALKQKLQSLVYGPQLADLTISASQHHNAALIGAAQWFLQQQKSSDFN
MEKIFKVTSDSGIHARPATLLVNTASKFGSDINLEYNGKNVNLKSIMGVMSLGIQQNAEIKITANGDDAAQALAAIEETMKNEGLGE
MGSDKIHHHHHHILPNDESQKLIVNALINANKTNNAIFLALSGYHEPQVVKNGIIHLYINNVLSETISECTYRPNNDSPLDYQNYFYQISSRFKTGDQVRIEVETKDGKYKANAEATVYEPIEIIKADTIESNHSLSETSESLWIYQATKWKIKLQTPTTNHSQYYRVNIKQTYTYRLTNRKTLQDSTAISTQWECSGYYDTALMDGKPGTPNNSDPIINFIPTINNYYNVFNDAYFTNNQYTMTLDSWYSFLLDNKLYKIKKITGKAIIQYYAISPAEYQYLRAANAYADHDSSNLLETPVIFPNNIKGGIGIFAIENPTETSIPLKSIEDY
MGSDKIHHHHHHMRVSVRNLTKIFRVGSIFSLKKLVAIDNVSFEIGSGEIFSLAGESGCGKTTTAKILLGLEEPTNGEVLYDGIKLKDFVENEMHFLKKVQTVQQNPFSTFNPFRKVEDYLFKTVLRFKMANTKDEALRLIEEKLSVVGLNFDEIKGRYPSEFSGGQLQRISIARALLTNPSFLVADEPVSMIDASLRISIVNLFRDLKERFGISILYITHDLSTAYYVADKLAIMFRGSIVEMGRAQDILDTPFHPYTKLLKSSIPVPDPEYEWDENINLSSTEREEFFAKGCKFASRCPEVMSICRESVPPDFDVNGRVVKCWLYK
MRQHAAPCTQLITWSIEMDNALDFLLEQAQESEDKAVLALSKARSELDSYYHQLRQIEQYRLEYCQQLVERGKSGLTASQYGHLNRFLTQLDETLAKQKSAEQHFRLQVENCEQHWMNMRQKRKSYQWLMEKKQTERQLLQEKREQKQMDEFSTLMFNRRRLSS
MTQTVKLDILSDPICPWCYIGKTQLDKALAAIPDHPFVIEWHPFQLNPDMAPEGMDRREYLERKFGGKEGAVRAYAPVVEHAEKAGLAIDFEAMQRTPNTLDAHRLIHWAGVEGKQTEAVDALFAAYFTEGRDIGDAEVLADIADSIGMDAAVVLKLLKSDADRDDIAKRDSHSREMGVSSVPTFIVANQHAVPGAQPPELWEQVIREIMSQIETTSA
